Results published in paper PMC6005765 (Bioorganic & medicinal chemistry letters, 2018).
Starred links: 1 amine or outer side, 2 acyl side, 3 side chain; linkers in the order of their positions; H or OH if unused. Non-standard residues stand in square brackets, D forms with d. Residues, ends and D or L forms follow the SMILES beside them. No end group written: not given here. Phe(2-(4-CF3-phenyl)) = O=C([C@H](Cc1ccccc1-c1ccc(C(F)(F)F)cc1)N[*:1])[*:2]; Phe(2-(2-methyl-1-propenyl)) = CC(C)=Cc1ccccc1C[C@H](N[*:1])C(=O)[*:2]; Phe(3-(3-thienyl)) = O=C([C@H](Cc1cccc(-c2ccsc2)c1)N[*:1])[*:2]; Phe(2-(3-thienyl)) = O=C([C@H](Cc1ccccc1-c1ccsc1)N[*:1])[*:2]; Phe(3-vinyl) = C=Cc1cccc(C[C@H](N[*:1])C(=O)[*:2])c1; Phe(4-vinyl) = C=Cc1ccc(C[C@H](N[*:1])C(=O)[*:2])cc1; Phe(2-vinyl) = C=Cc1ccccc1C[C@H](N[*:1])C(=O)[*:2]; Phe(3-Ph) = N[C@@H](Cc1cccc(-c2ccccc2)c1)C(=O)O; Phe(2-Ph) = N[C@@H](Cc1ccccc1-c1ccccc1)C(=O)O; Bip = N[C@@H](Cc1ccc(-c2ccccc2)cc1)C(=O)O; Dmt = Cc1cc(O)cc(C)c1C[C@H](N)C(=O)O

Assays:
μ opioid receptor (MOP) = μ opioid receptor (MOP) (Homo sapiens, UniProt P35372); format: binding; settings: for Selectivity IC50δ/IC50μ: ratio DOP IC50 / MOP IC50
Sequence of μ opioid receptor (MOP) (P35372 whole entry, species assumed): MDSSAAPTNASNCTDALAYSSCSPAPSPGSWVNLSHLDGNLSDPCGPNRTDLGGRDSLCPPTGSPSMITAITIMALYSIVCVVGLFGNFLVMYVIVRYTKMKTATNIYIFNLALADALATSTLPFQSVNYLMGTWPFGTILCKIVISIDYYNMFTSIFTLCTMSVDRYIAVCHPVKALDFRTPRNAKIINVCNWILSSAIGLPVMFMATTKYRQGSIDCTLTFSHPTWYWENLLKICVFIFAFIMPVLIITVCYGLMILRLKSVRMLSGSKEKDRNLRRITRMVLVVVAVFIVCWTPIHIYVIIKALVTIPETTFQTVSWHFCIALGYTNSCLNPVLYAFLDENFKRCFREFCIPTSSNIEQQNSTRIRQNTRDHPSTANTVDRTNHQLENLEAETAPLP

δ opioid receptor (DOP) = δ opioid receptor (DOP) (Homo sapiens, UniProt P41143); format: binding
[1] = tested on: guinea pig ileum (GPI), MOP; settings: for IC50: read-out: IC50 (GPI), agonist potency; for Functional character in GPI assay: in vitro
MOP = MOP (Homo sapiens, UniProt P35372); assay: EPAC cAMP BRET-based biosensor assay, MOP; format: cell-based
Sequence of MOP (P35372 whole entry): as the sequence (P35372 whole entry, species assumed) above

DOP = DOP (Homo sapiens, UniProt P41143); assay: EPAC cAMP BRET-based biosensor assay, DOP; format: cell-based
rats = assay: Tail-flick test on rats after intrathecal administration; format: in vivo, rat
μ opioid receptor [2] = target: μ opioid receptor (UniProt P35372)
δ opioid receptor [3] = target: δ opioid receptor (UniProt P41143)
δ opioid receptor [4] = target: δ opioid receptor (UniProt P41143); remark: listed apart in the source
δ opioid receptor [5] = target: δ opioid receptor (UniProt P41143); assay: radioligand binding
μ opioid receptor [6] = target: μ opioid receptor (UniProt P35372); assay: radioligand binding

Cc1cc(O)cc(C)c1C[C@H](N)C(=O)N[C@H](CCCNC(=N)N)C(=O)N[C@@H](Cc1ccccc1-c1ccc(C(F)(F)F)cc1)C(=O)NCC(N)=O [Compound 11, Dmt-D-Arg-Phe(2-(4-CF3-phenyl))-Gly-NH2]
IC50 (μ opioid receptor (MOP)): 0.07 ± 0.09 nM
Selectivity IC50δ/IC50μ (μ opioid receptor (MOP)): 560
IC50 (δ opioid receptor (DOP)): 39.2 ± 17 nM
IC50 [1]: 1.26 ± 0.17 nM
EC50 (MOP): 0.12 ± 0.05 nM
EC50 (DOP): 26.8 ± 6 nM

Cc1cc(O)cc(C)c1C[C@H](N)C(=O)N[C@H](CCCNC(=N)N)C(=O)N[C@@H](Cc1ccccc1-c1ccc(F)cc1)C(=O)NCC(N)=O [Compound 12, Dmt-D-Arg-Phe(2-(4-F-phenyl))-Gly-NH2]
IC50 (μ opioid receptor (MOP)): 0.47 ± 0.06 nM
Selectivity IC50δ/IC50μ (μ opioid receptor (MOP)): 925
IC50 (δ opioid receptor (DOP)): 435 ± 26 nM
IC50 [1]: 0.801 ± 0.086 nM

Cc1cc(O)cc(C)c1C[C@H](N)C(=O)N[C@H](CCCNC(=N)N)C(=O)N[C@@H](Cc1ccc(-c2ccccc2)cc1)C(=O)NCC(N)=O [Compound 1, Dmt-D-Arg-Phe(4-phenyl)-Gly-NH2] (H-[Dmt][dR][Bip]G-NH2)
Functional character in GPI assay [1]: μ-opioid antagonism

Cc1cc(O)cc(C)c1C[C@H](N)C(=O)N[C@H](C)C(=O)N[C@@H](Cc1ccccc1-c1ccccc1)C(=O)NCC(N)=O [Compound 15, Dmt-D-Ala-Phe(2-phenyl)-Gly-NH2] (H-[Dmt][dA][Phe(2-Ph)]G-NH2)
Duration of analgesic action on thermal nociception (rats): exceeding 60 min

C=Cc1ccccc1C[C@H](NC(=O)[C@@H](C)N(C)C(=O)[C@@H](N)Cc1c(C)cc(O)cc1C)C(=O)NCC(N)=O [Compound 18, Dmt-N-Me-D-Ala-Phe(2-vinyl)-Gly-NH2]
IC50 (μ opioid receptor (MOP)): 0.36 ± 0.09 nM
Selectivity IC50δ/IC50μ (μ opioid receptor (MOP)): 165
IC50 (δ opioid receptor (DOP)): 59.4 ± 0.8 nM
IC50 [1]: 0.641 ± 0.045 nM
EC50 (MOP): 0.003 ± 0.004 nM
EC50 (DOP): 4.4 ± 2 nM

Cc1cc(O)cc(C)c1C[C@H](N)C(=O)N[C@H](CCCNC(=N)N)C(=O)N[C@@H](Cc1ccc(-c2ccsc2)cc1)C(=O)NCC(N)=O [Compound 4, Dmt-D-Arg-Phe(4-(3-thienyl))-Gly-NH2]
Functional character in GPI assay [1]: μ-opioid antagonism

Cc1cc(O)cc(C)c1C[C@H](N)C(=O)N[C@H](CCCNC(=N)N)C(=O)N[C@@H](Cc1ccccc1-c1ccc(Cl)cc1)C(=O)NCC(N)=O [Compound 13, Dmt-D-Arg-Phe(2-(4-Cl-phenyl))-Gly-NH2]
IC50 (μ opioid receptor (MOP)): 0.35 ± 0.06 nM
Selectivity IC50δ/IC50μ (μ opioid receptor (MOP)): 989
IC50 (δ opioid receptor (DOP)): 346 ± 10 nM
IC50 [1]: 2.39 ± 0.09 nM

COc1ccc(-c2ccccc2C[C@H](NC(=O)[C@@H](CCCNC(=N)N)NC(=O)[C@@H](N)Cc2c(C)cc(O)cc2C)C(=O)NCC(N)=O)cc1 [Compound 10, Dmt-D-Arg-Phe(2-(4-MeO-phenyl))-Gly-NH2]
IC50 (μ opioid receptor (MOP)): 0.47 ± 0.24 nM
Selectivity IC50δ/IC50μ (μ opioid receptor (MOP)): 149
IC50 (δ opioid receptor (DOP)): 70.2 ± 27.2 nM
IC50 [1]: 0.901 ± 0.224 nM

CC(C)=Cc1ccccc1C[C@H](NC(=O)[C@@H](CCCNC(=N)N)NC(=O)[C@@H](N)Cc1c(C)cc(O)cc1C)C(=O)NCC(N)=O [Compound 14]
Duration of analgesic action on thermal nociception (rats): exceeding 60 min

DAMGO (peptide)
IC50 in the guinea pig ileum (GPI) assay (μ opioid receptor [2]): 28.3 nM
EPAC DOP EC50 (EPAC cAMP BRET-based biosensor assay) (δ opioid receptor [3]): 49 nM

B1: Dmt-D-Arg-Phe(3-vinyl)-Gly-NH2 (peptide)
peptide: [Dmt][dR][Phe(3-vinyl)]G-NH2
modifications: N-terminus assumed
SMILES: C=Cc1cccc(C[C@H](NC(=O)[C@@H](CCCNC(=N)N)NC(=O)[C@@H](N)Cc2c(C)cc(O)cc2C)C(=O)NCC(N)=O)c1
IC50 in the mouse vas deferens (MVD) assay (δ opioid receptor [4]): 9.74 nM
IC50 in the guinea pig ileum (GPI) assay (μ opioid receptor [2]): 1.43 nM
IC50 (δ opioid receptor [5]): 165 nM
IC50 (μ opioid receptor [6]): 0.46 nM

B2: Dmt-D-Arg-Phe(3-(3-thienyl))-Gly-NH2 (peptide)
peptide: [Dmt][dR][Phe(3-(3-thienyl))]G-NH2
modifications: N-terminus assumed
SMILES: Cc1cc(O)cc(C)c1C[C@H](N)C(=O)N[C@H](CCCNC(=N)N)C(=O)N[C@@H](Cc1cccc(-c2ccsc2)c1)C(=O)NCC(N)=O
IC35 (partial agonist) in the mouse vas deferens (MVD) assay (δ opioid receptor [4]): 52.8 nM
IC50 in the guinea pig ileum (GPI) assay (μ opioid receptor [2]): 30.4 nM
IC50 (δ opioid receptor [5]): 601 nM
IC50 (μ opioid receptor [6]): 1.03 nM

B3: Dmt-D-Arg-Phe(2-(2-methyl-1-propenyl)-Gly-NH2 (peptide)
peptide: [Dmt][dR][Phe(2-(2-methyl-1-propenyl))]G-NH2
modifications: N-terminus assumed
SMILES: CC(C)=Cc1ccccc1C[C@H](NC(=O)[C@@H](CCCNC(=N)N)NC(=O)[C@@H](N)Cc1c(C)cc(O)cc1C)C(=O)NCC(N)=O
IC50 in the mouse vas deferens (MVD) assay (δ opioid receptor [4]): 0.63 nM
IC50 in the guinea pig ileum (GPI) assay (μ opioid receptor [2]): 0.701 nM
EPAC DOP EC50 (EPAC cAMP BRET-based biosensor assay) (δ opioid receptor [3]): 19.4 nM
IC50 (δ opioid receptor [5]): 585 nM
IC50 (μ opioid receptor [6]): 0.57 nM

B4: Dmt-D-Ala-Phe(2-vinyl)-Gly-NH2 (peptide)
peptide: [Dmt][dA][Phe(2-vinyl)]G-NH2
modifications: N-terminus assumed
SMILES: C=Cc1ccccc1C[C@H](NC(=O)[C@@H](C)NC(=O)[C@@H](N)Cc1c(C)cc(O)cc1C)C(=O)NCC(N)=O
IC50 in the mouse vas deferens (MVD) assay (δ opioid receptor [4]): 2.81 nM
IC50 in the guinea pig ileum (GPI) assay (μ opioid receptor [2]): 1.18 nM
IC50 (δ opioid receptor [5]): 8 nM
IC50 (μ opioid receptor [6]): 0.25 nM

B5: Dmt-D-Arg-Phe(2-(3-thienyl))-Gly-NH2 (peptide)
peptide: [Dmt][dR][Phe(2-(3-thienyl))]G-NH2
modifications: N-terminus assumed
SMILES: Cc1cc(O)cc(C)c1C[C@H](N)C(=O)N[C@H](CCCNC(=N)N)C(=O)N[C@@H](Cc1ccccc1-c1ccsc1)C(=O)NCC(N)=O
IC50 in the mouse vas deferens (MVD) assay (δ opioid receptor [4]): 2.75 nM
IC50 in the guinea pig ileum (GPI) assay (μ opioid receptor [2]): 1.54 nM
EPAC DOP EC50 (EPAC cAMP BRET-based biosensor assay) (δ opioid receptor [3]): 49 nM
IC50 (δ opioid receptor [5]): 625 nM
IC50 (μ opioid receptor [6]): 1.45 nM

B6: Dmt-D-Arg-Phe(2-vinyl)-Gly-NH2 (peptide)
peptide: [Dmt][dR][Phe(2-vinyl)]G-NH2
modifications: N-terminus assumed
SMILES: C=Cc1ccccc1C[C@H](NC(=O)[C@@H](CCCNC(=N)N)NC(=O)[C@@H](N)Cc1c(C)cc(O)cc1C)C(=O)NCC(N)=O
IC50 in the mouse vas deferens (MVD) assay (δ opioid receptor [4]): 0.406 nM
IC50 in the guinea pig ileum (GPI) assay (μ opioid receptor [2]): 0.389 nM
EPAC DOP EC50 (EPAC cAMP BRET-based biosensor assay) (δ opioid receptor [3]): 7 nM
IC50 (δ opioid receptor [5]): 18 nM
IC50 (μ opioid receptor [6]): 0.47 nM

B7: Dmt-D-Arg-Phe(3-phenyl)-Gly-NH2 (peptide)
peptide: [Dmt][dR][Phe(3-Ph)]G-NH2
modifications: N-terminus assumed
SMILES: Cc1cc(O)cc(C)c1C[C@H](N)C(=O)N[C@H](CCCNC(=N)N)C(=O)N[C@@H](Cc1cccc(-c2ccccc2)c1)C(=O)NCC(N)=O
IC40 (partial agonist) in the mouse vas deferens (MVD) assay (δ opioid receptor [4]): 117 nM
IC50 in the guinea pig ileum (GPI) assay (μ opioid receptor [2]): 61.7 nM
IC50 (δ opioid receptor [5]): 269 nM
IC50 (μ opioid receptor [6]): 0.85 nM

B8: Dmt-D-Ala-Phe(2-phenyl)-Gly-NH2 (peptide)
peptide: [Dmt][dA][Phe(2-Ph)]G-NH2
modifications: N-terminus assumed
SMILES: Cc1cc(O)cc(C)c1C[C@H](N)C(=O)N[C@H](C)C(=O)N[C@@H](Cc1ccccc1-c1ccccc1)C(=O)NCC(N)=O
IC50 in the mouse vas deferens (MVD) assay (δ opioid receptor [4]): 2.6 nM
IC50 in the guinea pig ileum (GPI) assay (μ opioid receptor [2]): 1.6 nM
IC50 (δ opioid receptor [5]): 19.8 nM
IC50 (μ opioid receptor [6]): 0.35 nM

B9: Dmt-D-Arg-Phe(4-vinyl)-Gly-NH2 (peptide)
peptide: [Dmt][dR][Phe(4-vinyl)]G-NH2
modifications: N-terminus assumed
SMILES: C=Cc1ccc(C[C@H](NC(=O)[C@@H](CCCNC(=N)N)NC(=O)[C@@H](N)Cc2c(C)cc(O)cc2C)C(=O)NCC(N)=O)cc1
IC50 in the mouse vas deferens (MVD) assay (δ opioid receptor [4]): 430 nM
IC50 in the guinea pig ileum (GPI) assay (μ opioid receptor [2]): 24.1 nM
IC50 (δ opioid receptor [5]): 1420 nM
IC50 (μ opioid receptor [6]): 1.82 nM

B10: Dmt-D-Arg-Phe(2-(4-CF3-phenyl))-Gly-NH2 (peptide)
peptide: [Dmt][dR][Phe(2-(4-CF3-phenyl))]G-NH2
modifications: N-terminus assumed
SMILES: Cc1cc(O)cc(C)c1C[C@H](N)C(=O)N[C@H](CCCNC(=N)N)C(=O)N[C@@H](Cc1ccccc1-c1ccc(C(F)(F)F)cc1)C(=O)NCC(N)=O
IC50 in the mouse vas deferens (MVD) assay (δ opioid receptor [4]): 1.78 nM
IC50 in the guinea pig ileum (GPI) assay (μ opioid receptor [2]): 1.26 nM
EPAC DOP EC50 (EPAC cAMP BRET-based biosensor assay) (δ opioid receptor [3]): 26.8 nM

B11: Dmt-D-Arg-Phe-Gly-NH2 (peptide)
peptide: [Dmt][dR]FG-NH2
modifications: N-terminus assumed
SMILES: Cc1cc(O)cc(C)c1C[C@H](N)C(=O)N[C@H](CCCNC(=N)N)C(=O)N[C@@H](Cc1ccccc1)C(=O)NCC(N)=O
IC50 in the mouse vas deferens (MVD) assay (δ opioid receptor [4]): 0.316 nM
IC50 in the guinea pig ileum (GPI) assay (μ opioid receptor [2]): 2.26 nM
EPAC DOP EC50 (EPAC cAMP BRET-based biosensor assay) (δ opioid receptor [3]): 1.13 nM
